Source: patent US20110145941A1 (LAY LINE GENOMICS S P A, published 2011)
Positions count from the first letter of the chain named.

B1: HuMNACWO (antibody, V domains shown)
VH: EVQLLESGGGLVQPGGSLRLSCAASGFTFSTYTMSWARQAPGKGLEWVAYISKGGGSTYYPDTVKGRFTISRDNSKNTLYLQMNSLRAEDSAVYYCARGAMFGNDFFFPMDRWGQGTLVTVSS
VL: DIVLTQSPSSLSASVGDRVTITCSASSSVSYMHWYQQKPGQAPKLLIYTTSNLASGVPSRFSGSGSGTDYTLTISSLQPEDVATYYCHQWSSYPWTFGGGTKVEIK
notes: Prior art humanised antibody; also called humanised antibody MNAC13 disclosed in WO 05/061540; HuVHWO/HuVLWO
B2: ChimMNAC13 (antibody, V domains shown)
VH: EVKLMESGGGLVQPGGSLKLSCAASGFTFSTYTMSWARQTPEKRLEWVAYISKGGGSTYYPDTVKGRFTISRDNAKNTLYLQMSSLKSEDTALYYCARGAMYGNDFFYPMDYWGQQTSVTVSS
VL: DIVLSQSPAIMSASLGEEITLTCSASSSVSYMHWYQQKSGTSPKLLITTTSNLASGVPSRFSGSGSGTFYSLTISSVEAEDAADYYCHQWSSYPWTFGGGTKLEIK
notes: Corresponds to muMNACEP but has human constant regions instead of mouse constant regions; also called chimNINAC13; mVHEP/mVLEP
B3: BXhVH2VL8 (antibody, human IgG1, V domains shown)
VH: B1 VH with A37V, A40T, G44R, S91T, R98K, F102Y, F108Y, R112Y, L118T
VL: QIVLTQSPATLSLSPGEEATLSCSASSSVSYMHWYQQKSGTSPRLLIYTTSNLASGIPSRFSGSGSGTFYTLTISSLEPEDAADYYCHQWSSYPWTFGGGTKLEIK
notes: Human IgG1 constant regions (IgG1 expression vectors); COS-7 supernatant; also called hVH2/hVL8
B4: HuMNACWOv (antibody, V domains shown)
VH: B1 VH with F102Y, F108Y, R112Y
VL: B1 VL
notes: Variant of HuMNACWO whose heavy chain CDR3 is replaced with that of muMNACEP; also called hVHWOv/hVLWO; HuVHWOv/HuVLWO
B5: BXhVH3VL3 (antibody, human IgG1, V domains shown)
VH: B1 VH with A37V, G44R, S91T, F102Y, F108Y, R112Y, L118T
VL: B3 VL with E18R, S39P, T41Q, A82F, D84V
notes: Human IgG1 constant regions (IgG1 expression vectors); also called hVH3/hVL3
B6: BXhVH3VL1 (antibody, human IgG1, V domains shown)
VH: B1 VH with A37V, G44R, S91T, F102Y, F108Y, R112Y, L118T
VL: EIVLTQSPATLSLSPGERATLSCSASSSVSYMHWYQQKPGQAPRLLIYTTSNLASGIPARFSGSGSGTDFTLTISSLEPEDFAVYYCHQWSSYPWTFGQGTKLEIK
notes: Human IgG1 constant regions (IgG1 expression vectors); COS-7 supernatant; also called hVH3/hVL1
B7: BXhVH3VL4 (antibody, human IgG1, V domains shown)
VH: B1 VH with A37V, G44R, S91T, F102Y, F108Y, R112Y, L118T
VL: B3 VL with E18R, S39P, T41Q, F69D, Y70F
notes: Human IgG1 constant regions (IgG1 expression vectors); COS-7 supernatant; also called hVH3/hVL4
B8: BXhVH3VL5 (antibody, human IgG1, V domains shown)
VH: B1 VH with A37V, G44R, S91T, F102Y, F108Y, R112Y, L118T
VL: B3 VL with E18R, S39P, T41Q, F69D, G99Q
notes: Human IgG1 constant regions (IgG1 expression vectors); COS-7 supernatant; also called hVH3/hVL5
B9: BXhVH5VL5 (antibody, human IgG1, V domains shown)
VH: B1 VH with Q3K, A37V, A40T, G44R, S91T, F102Y, F108Y, R112Y, L118T
VL: B3 VL with E18R, S39P, T41Q, F69D, G99Q
notes: Human IgG1 constant regions (IgG1 expression vectors); COS-7 supernatant; also called hVH5/hVL5
B10: BXhVH5VL6 (antibody, human IgG1, V domains shown)
VH: B1 VH with Q3K, A37V, A40T, G44R, S91T, F102Y, F108Y, R112Y, L118T
VL: B3 VL with Q1E, S39P, T41Q
notes: Human IgG1 constant regions (IgG1 expression vectors); COS-7 supernatant; also called hVH5/hVL6
B11: BXhVH3VL8 (antibody, human IgG1, V domains shown)
VH: B1 VH with A37V, G44R, S91T, F102Y, F108Y, R112Y, L118T
VL: B3 VL
notes: Human IgG1 constant regions (IgG1 expression vectors); COS-7 supernatant; also called hVH3/hVL8
B12: BXhVH3VL6 (antibody, human IgG1, V domains shown)
VH: B1 VH with A37V, G44R, S91T, F102Y, F108Y, R112Y, L118T
VL: B3 VL with Q1E, S39P, T41Q
notes: Human IgG1 constant regions (IgG1 expression vectors); COS-7 supernatant; also called hVH3/hVL6
B13: BXhVH3VL7 (antibody, human IgG1, V domains shown)
VH: B1 VH with A37V, G44R, S91T, F102Y, F108Y, R112Y, L118T
VL: B3 VL with E18R, S39P, T41Q
notes: Human IgG1 constant regions (IgG1 expression vectors); COS-7 supernatant; also called hVH3/hVL7
B14: BXhVH5VL2 (antibody, human IgG1, V domains shown)
VH: B1 VH with Q3K, A37V, A40T, G44R, S91T, F102Y, F108Y, R112Y, L118T
VL: B6 VL with A42S, A59S, F82A, V84D
notes: Human IgG1 constant regions (IgG1 expression vectors); COS-7 supernatant; also called hVH5/hVL2
B15: BXhVH5VL7 (antibody, human IgG1, V domains shown)
VH: B1 VH with Q3K, A37V, A40T, G44R, S91T, F102Y, F108Y, R112Y, L118T
VL: B3 VL with E18R, S39P, T41Q
notes: Human IgG1 constant regions (IgG1 expression vectors); COS-7 supernatant; also called hVH5/hVL7
B16: BXhVH5VL3 (antibody, human IgG1, V domains shown)
VH: B1 VH with Q3K, A37V, A40T, G44R, S91T, F102Y, F108Y, R112Y, L118T
VL: B3 VL with E18R, S39P, T41Q, A82F, D84V
notes: Human IgG1 constant regions (IgG1 expression vectors); also called hVH5/hVL3
B17: BXhVH3VL2 (antibody, human IgG1, V domains shown)
VH: B1 VH with A37V, G44R, S91T, F102Y, F108Y, R112Y, L118T
VL: B6 VL with A42S, A59S, F82A, V84D
notes: Human IgG1 constant regions (IgG1 expression vectors); COS-7 supernatant; also called hVH3/hVL2
B18: BXhVH5VL4 (antibody, human IgG1, V domains shown)
VH: B1 VH with Q3K, A37V, A40T, G44R, S91T, F102Y, F108Y, R112Y, L118T
VL: B3 VL with E18R, S39P, T41Q, F69D, Y70F
notes: Human IgG1 constant regions (IgG1 expression vectors); COS-7 supernatant; also called hVH5/hVL4
B19: muMNACEP (antibody, V domains shown)
VH: B2 VH
VL: B2 VL
notes: Murine monoclonal antibody as disclosed in EP1181318; also called murine antibody MNAC13; MNAC13

target: T1, TrkA-IgG (UniProt P04629 33-423, limits assumed); test: SPR (BIACORE 2000), TrkA-IgG immobilised on CM-5 chip, 'separated 1:1' fit; separate experiment
T1 construct: also called specific antigen TrkA-IgG; not shown: IgG part of the fusion
T1 sequence (P04629 33-423 limits assumed): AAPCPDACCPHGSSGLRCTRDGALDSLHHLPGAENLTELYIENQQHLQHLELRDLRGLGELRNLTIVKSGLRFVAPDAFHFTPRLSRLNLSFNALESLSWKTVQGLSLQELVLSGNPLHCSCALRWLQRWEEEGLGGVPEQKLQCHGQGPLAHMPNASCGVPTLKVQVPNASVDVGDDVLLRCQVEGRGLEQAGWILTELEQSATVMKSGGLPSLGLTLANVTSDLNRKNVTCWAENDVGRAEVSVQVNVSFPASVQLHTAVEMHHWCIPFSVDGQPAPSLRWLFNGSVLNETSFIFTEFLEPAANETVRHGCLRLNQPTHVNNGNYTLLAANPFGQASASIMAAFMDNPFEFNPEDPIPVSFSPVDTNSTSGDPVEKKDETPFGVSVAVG

Work on B1 yielded a Kd of 41.8 nM.

In the case of B1, the koff is reported as 0.0309 s⁻¹.

B1 gave a kon of 739000 M⁻¹ s⁻¹.

target: T2, human TrkA receptor on the cell surface (human, UniProt P04629 33-796); test: flow cytometry on TF-1 cells, 4 µg/ml; set-up: Geo Mean Fluorescence: reference not given here
T2 construct: whole, on cells; PC12-hTrkA: high density; also called hTrkA; huTrkA
T2 sequence (P04629 33-796): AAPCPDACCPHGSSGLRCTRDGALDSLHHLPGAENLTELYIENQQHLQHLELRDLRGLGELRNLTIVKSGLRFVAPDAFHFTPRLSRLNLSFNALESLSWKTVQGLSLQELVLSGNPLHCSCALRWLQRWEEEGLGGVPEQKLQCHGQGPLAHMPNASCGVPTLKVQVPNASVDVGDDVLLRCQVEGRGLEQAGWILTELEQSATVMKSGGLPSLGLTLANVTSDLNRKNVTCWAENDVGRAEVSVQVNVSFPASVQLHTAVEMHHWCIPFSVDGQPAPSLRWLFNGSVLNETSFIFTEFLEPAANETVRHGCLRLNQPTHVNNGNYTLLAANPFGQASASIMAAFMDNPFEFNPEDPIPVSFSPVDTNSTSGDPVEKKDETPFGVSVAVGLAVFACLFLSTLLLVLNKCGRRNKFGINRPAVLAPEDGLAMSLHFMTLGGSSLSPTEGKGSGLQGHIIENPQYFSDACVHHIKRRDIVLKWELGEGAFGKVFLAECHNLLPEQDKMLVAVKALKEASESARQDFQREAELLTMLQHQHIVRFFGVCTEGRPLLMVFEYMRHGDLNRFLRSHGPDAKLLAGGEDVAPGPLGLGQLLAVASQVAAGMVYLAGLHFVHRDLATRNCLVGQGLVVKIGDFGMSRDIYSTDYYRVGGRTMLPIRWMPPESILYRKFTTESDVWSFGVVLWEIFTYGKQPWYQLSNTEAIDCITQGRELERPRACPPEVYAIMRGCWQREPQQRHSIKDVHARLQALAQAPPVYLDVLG

Going from B2 to B3, the “Fold Increase” value falls from 3.2 fold to 1.9 fold.

Going from B4 to B5, the “Fold Increase” value rises from 2.6 fold to 3.6 fold.

Going from B6 to B7, the “Fold Increase” value falls from 2.5 fold to 2 fold.

Compared with B8, B9 is higher in “Fold Increase” value: 2 fold for the first, 2.4 fold for the second.

Compared with B10, B11 is lower in “Fold Increase” value: 2.6 fold for the first, 1.9 fold for the second.

First: B12
Second: B13
The “Fold Increase” value of the first is lower: 1.8 fold for the first, 2 fold for the second.

B14 and B15 are the same in “Fold Increase” value: 2.5 fold for the first, 2.5 fold for the second.

Compared with B16, B17 is lower in “Fold Increase” value: 3.9 fold for the first, 2 fold for the second.

B18 was tested, and the “Fold Increase” value was 2.6 fold.

Going from B2 to B3, the “Geo Mean Fluorescence” value falls from 11 to 6.5.

Compared with B4, B5 is higher in “Geo Mean Fluorescence” value: 8.9 for the first, 12.6 for the second.

Compared with B6, B7 is lower in “Geo Mean Fluorescence” value: 8.6 for the first, 7.1 for the second.

First: B8
Second: B9
The “Geo Mean Fluorescence” value of the first is lower: 6.9 for the first, 8.3 for the second.

Going from B10 to B11, the “Geo Mean Fluorescence” value falls from 9.1 to 6.5.

Going from B12 to B13, the “Geo Mean Fluorescence” value rises from 6.4 to 7.1.

B14 and B15 are the same in “Geo Mean Fluorescence” value: 8.6 for the first, 8.6 for the second.

Going from B16 to B17, the “Geo Mean Fluorescence” value falls from 13.7 to 7.1.

In the case of B18, the “Geo Mean Fluorescence” value is reported as 9.1.

target: T1, TrkA-IgG; test: SPR (BIACORE 2000), TrkA-IgG immobilised on CM-5 chip, 'separated 1:1' fit
Protocol: Surface plasmon resonance analysis was used to measure the association and dissociation rate constants for binding kinetics of the different antibodies (murine, chimeric, 5 humanised variants) towards TrkA-IgG using BIACORE 2000 (Biacore AB, Uppsala, Sweden). TrkA-IgG was immobilised on a CM-5 sensor chip according to manufacturer's conditions, in a way to achieve an immobilization density of 1100 RU. Each antibody sample was analyzed in antibody concentration ranges of 20-0.63 μg/ml. Calculations from the sensograms were performed by using the BIA evaluation version 3 (1999) software.
Analysis of the individual sets of sensograms was performed with the BIA evaluation version 3 (1999) software. Among the different models tested to fit the kinetics data, the best fitting was obtained with the “separated 1:1” algorithm. In this model, only a defined range of the early association and dissociation curves was used for the calculation.

Compared with B19, B2 is 1.7-fold lower in Kd: 0.25 nM for the first, 0.151 nM for the second.

Going from B4 to B5, the Kd falls from 2.48 nM to 1.45 nM (1.7-fold).

B16 gave a Kd of 0.662 nM.

First: B19
Second: B4
The koff of the first is 23-fold lower: 0.000167 s⁻¹ for the first, 0.00386 s⁻¹ for the second.

B5 and B16 are within 1.5-fold of each other in koff: 0.000442 s⁻¹ for the first, 0.000638 s⁻¹ for the second.

Compared with B19, B4 is 1.9-fold higher in kon: 850000 M⁻¹ s⁻¹ for the first, 1.62e+06 M⁻¹ s⁻¹ for the second.

Compared with B5, B16 is 3.1-fold higher in kon: 325000 M⁻¹ s⁻¹ for the first, 1e+06 M⁻¹ s⁻¹ for the second.

target: T2, human TrkA receptor on the cell surface; test: cell-based or functional assay

In the case of B19, the “Proliferation assay on TF1 cells IC50 (µg/ml), Mean” value is reported as 0.54 µg/mL.

First: B2
Second: B5
The “Proliferation assay on TF1 cells IC50 (µg/ml), EXP-1” value of the first is 6.8-fold lower: 0.06 µg/mL for the first, 0.41 µg/mL for the second.

With B16 the “Proliferation assay on TF1 cells IC50 (µg/ml), EXP-1” value was 1.4 µg/mL.

First: B2
Second: B5
The “Proliferation assay on TF1 cells IC50 (µg/ml), EXP-2” value of the first is 4.1-fold lower: 0.58 µg/mL for the first, 2.38 µg/mL for the second.

With B16 the “Proliferation assay on TF1 cells IC50 (µg/ml), EXP-2” value was 1.21 µg/mL.

target: T2, human TrkA receptor on the cell surface; test: flow cytometry on TF-1 cells, control immunoglobulin

For Human IgG1 standard control (antibody), the Fold Increase was 1 fold.

Human IgG1 standard control (antibody) was tested, and the Geo Mean Fluorescence was 3.5.
